The results in this text go back to patent US20070072177A1.

This assay addresses rabies virus glycoprotein (G protein) of strain CVS-11 (rabies virus strain CVS-11) (UniProt O92284). Briefly: cell-based or functional assay.

Sequence of rabies virus glycoprotein (G protein) of strain CVS-11 (rabies virus strain CVS-11) (O92284 20-524 limits assumed): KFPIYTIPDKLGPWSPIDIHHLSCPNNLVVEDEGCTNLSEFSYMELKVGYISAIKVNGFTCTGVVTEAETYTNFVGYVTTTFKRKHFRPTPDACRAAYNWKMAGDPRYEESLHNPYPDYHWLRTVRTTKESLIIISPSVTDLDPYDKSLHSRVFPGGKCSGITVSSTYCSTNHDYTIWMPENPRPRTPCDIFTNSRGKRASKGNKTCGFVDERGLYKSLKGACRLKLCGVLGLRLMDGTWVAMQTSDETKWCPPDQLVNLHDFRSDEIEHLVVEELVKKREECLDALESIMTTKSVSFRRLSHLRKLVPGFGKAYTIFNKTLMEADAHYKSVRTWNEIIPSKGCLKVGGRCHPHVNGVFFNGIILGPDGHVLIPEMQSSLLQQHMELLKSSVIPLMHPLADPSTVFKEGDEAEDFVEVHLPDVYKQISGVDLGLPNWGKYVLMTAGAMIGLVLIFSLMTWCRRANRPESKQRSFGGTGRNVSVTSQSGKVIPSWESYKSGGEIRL

B1: CR04-108 (antibody)
VH: AMAEVQLVQSGGGLVQPGGSLRLSCAASGFTFSSYGMHWVRQAPGKGLEWVAVILYDGSDKFYADSVKGRFTISRDNSKDTLYLQMNSLRAEDTAVYYCAKFMIVADDAFDIWGQGTMVTVSSGTGGSGGTGSGTGGSTDIQLTQSPSSLSASVGDRVTITCRASQGISSHLVWYQQKPGKAPKSLIYAASSLQSGVPSRFSGSESATDFTLTISSLQPEDFATYYCQQYYSYPITFGQGTRLEIKRAAA
VL: AMAEVQLVQSGGGLVQPGGSLRLSCAASGFTFSSYGMHWVRQAPGKGLEWVAVILYDGSDKFYADSVKGRFTISRDNSKDTLYLQMNSLRAEDTAVYYCAKFMIVADDAFDIWGQGTMVTVSSGTGGSGGTGSGTGGSTDIQLTQSPSSLSASVGDRVTITCRASQGISSHLVWYQQKPGKAPKSLIYAASSLQSGVPSRFSGSESATDFTLTISSLQPEDFATYYCQQYYSYPITFGQGTRLEIKRAAA
Molecule B1 had a Neutralizing potency (modified RFFIT) of 4870 IU/mg.

B2: CR04-144 (antibody)
VH: AMAQVQLQELGGGVVQPGRSLRLSCAASGFTFGSYGMHWVRQAPGKGLEWVATISYDGSIKDYADSEKGRFTISRDNSKNTLYLQMNSLRAEDTAVYYCAKGGKTGEFDYWGQGTLVTVSSGTGGSGGTGSGTGGSTDIQLTQSPSSLSASVGDRVTITCRASQGISSYLAWYQQKPGKGPKLLIYAASTLQSGVPSRFSGSGSGTDFSLTISSLQPEDLATYYCQQYDSYPLTFGGGTKVEIKRAAA
VL: AMAQVQLQELGGGVVQPGRSLRLSCAASGFTFGSYGMHWVRQAPGKGLEWVATISYDGSIKDYADSEKGRFTISRDNSKNTLYLQMNSLRAEDTAVYYCAKGGKTGEFDYWGQGTLVTVSSGTGGSGGTGSGTGGSTDIQLTQSPSSLSASVGDRVTITCRASQGISSYLAWYQQKPGKGPKLLIYAASTLQSGVPSRFSGSGSGTDFSLTISSLQPEDLATYYCQQYDSYPLTFGGGTKVEIKRAAA
The molecule B2 displayed a Neutralizing potency (modified RFFIT) of 6250 IU/mg.

B3: CR04-120 (antibody)
VH: AMAEVQLVQSGGGLVQPGRSLRLSCAASGFTFSTYGMHWVRQAPGKGLEWVATISYDGSIKDYADSEKGRFTISRDNSKNTLYLQMNSLRAEDTAVYYCAKGGKTGEFDYWGQGTLVTVSSGTGGSGGTGSGTGGSTDIQLTQSPSTLSASVGDRVTITCRASQGINSYLAWYQQEPGKAPKLLIYAASTLQSGVPSRFSGSGSGTEFTLTISSLQPEDFATYYCQQLNSYPFTFGPGTKVDIKRAAA
VL: AMAEVQLVQSGGGLVQPGRSLRLSCAASGFTFSTYGMHWVRQAPGKGLEWVATISYDGSIKDYADSEKGRFTISRDNSKNTLYLQMNSLRAEDTAVYYCAKGGKTGEFDYWGQGTLVTVSSGTGGSGGTGSGTGGSTDIQLTQSPSTLSASVGDRVTITCRASQGINSYLAWYQQEPGKAPKLLIYAASTLQSGVPSRFSGSGSGTEFTLTISSLQPEDFATYYCQQLNSYPFTFGPGTKVDIKRAAA
Regarding B3, the Neutralizing potency (modified RFFIT) worked out at 4940 IU/mg.

B4: CR04-140 (antibody)
VH: AMAQMQLVQSGGGVVQPGRSLRLSCAASGFTFSSYGMHWVRQAPGKGLEWVAVILYDGSNKYYADSVKGRFTISRDNSKNALYLQMNSLRAEDTAVYYCAKVTNPGDAFDIWGQGTMVTVSSGTGGSGGTGSGTGGSTDIQMTQSPSSLSASVGDRVTITCRASQGISSALAWYQQKPGKAPKLLIYDASSLESGVPSRFSGSGSGTDFTLTISSLQPEDFATYYCQQFNSYPLTFGGGTKVEIKRAAA
VL: AMAQMQLVQSGGGVVQPGRSLRLSCAASGFTFSSYGMHWVRQAPGKGLEWVAVILYDGSNKYYADSVKGRFTISRDNSKNALYLQMNSLRAEDTAVYYCAKVTNPGDAFDIWGQGTMVTVSSGTGGSGGTGSGTGGSTDIQMTQSPSSLSASVGDRVTITCRASQGISSALAWYQQKPGKAPKLLIYDASSLESGVPSRFSGSGSGTDFTLTISSLQPEDFATYYCQQFNSYPLTFGGGTKVEIKRAAA
As to B4, the Neutralizing potency (modified RFFIT) turned out to be 478 IU/mg.
